± gives the uncertainty stated by the source.
B1: Cold shock protein CspB, residues 1 to 66; numbered along this chain, P41016 (parent)
chain: MQRGKVKWFNNEKGYGFIEVEGGSDVFVHFTAIQGEGFKTLEEGQEVSFEIVQGNRGPQAANVVKL

Variants of: B1
Assay: abundance fitness (aPCA) (normalised: wild type 0, dead -1); higher = more abundant; growth selection in yeast, the domain comes from the species named
Settings: Bacillus caldolyticus
N10Y showed an abundance fitness of -0.214 ± 0.062.
F30T showed an abundance fitness of -0.127 ± 0.05.
In the case of F30I, the abundance fitness is reported as -0.087 ± 0.068.
Work on F30A yielded an abundance fitness of -0.035 ± 0.047.
For F30Q, the abundance fitness was -0.025 ± 0.074.
K39I showed an abundance fitness of -0.133 ± 0.064.
F38H showed an abundance fitness of -0.132 ± 0.067.
With F38N the abundance fitness was 0.004 ± 0.14.
Variant N55F has an abundance fitness of 0.046 ± 0.43.
Work on N55T yielded an abundance fitness of -0.256 ± 0.18.
Variant N55E has an abundance fitness of -0.043 ± 0.31.
In the case of N55D, the abundance fitness is reported as -0.309 ± 0.28.
V28A gave an abundance fitness of -0.1 ± 0.045.
For V28E, the abundance fitness was -1.1 ± 0.15.
In the case of G54T, the abundance fitness is reported as 0.01 ± 0.068.
Work on G54M yielded an abundance fitness of -0.236 ± 0.18.
With F17D the abundance fitness was -0.558 ± 0.072.
Variant F17N has an abundance fitness of -0.171 ± 0.07.
In the case of F17P, the abundance fitness is reported as -0.977 ± 0.061.
In the case of V26G, the abundance fitness is reported as -0.573 ± 0.036.
Variant V26C has an abundance fitness of -0.053 ± 0.048.
With R56W the abundance fitness was -0.207 ± 0.045.
Work on R56P yielded an abundance fitness of -0.062 ± 0.048.
Variant R56V has an abundance fitness of -0.1 ± 0.04.
With G16H the abundance fitness was -1 ± 0.15.
With Q34S the abundance fitness was -0.003 ± 0.047.
S48M gave an abundance fitness of 0.026 ± 0.05.
S48A showed an abundance fitness of 0.003 ± 0.041.
Variant S48F has an abundance fitness of -0.008 ± 0.063.
Work on S48V yielded an abundance fitness of -0.059 ± 0.041.
V64A showed an abundance fitness of -0.03 ± 0.044.
With M1G the abundance fitness was -0.064 ± 0.05.
T31Q showed an abundance fitness of -0.132 ± 0.061.
F9I showed an abundance fitness of -0.272 ± 0.045.
With F9V the abundance fitness was -0.239 ± 0.039.
F9D gave an abundance fitness of -0.881 ± 0.11.
Variant K65R has an abundance fitness of 0.004 ± 0.044.
In the case of G23I, the abundance fitness is reported as -0.041 ± 0.055.
In the case of G23F, the abundance fitness is reported as -0.034 ± 0.049.
L41G showed an abundance fitness of -0.355 ± 0.034.
In the case of L41Y, the abundance fitness is reported as -0.368 ± 0.061.
Work on L41S yielded an abundance fitness of -0.433 ± 0.039.
L41V showed an abundance fitness of -0.042 ± 0.033.
With Q2W the abundance fitness was 0.001 ± 0.051.
For Q2D, the abundance fitness was -0.036 ± 0.073.
In the case of E36N, the abundance fitness is reported as -0.037 ± 0.11.
E36P gave an abundance fitness of -0.017 ± 0.043.
With G37I the abundance fitness was -0.18 ± 0.054.
In the case of K7N, the abundance fitness is reported as -0.016 ± 0.04.
Variant K7A has an abundance fitness of -0.002 ± 0.03.
For K7G, the abundance fitness was -0.106 ± 0.031.
S24A gave an abundance fitness of -0.011 ± 0.055.
In the case of F49K, the abundance fitness is reported as -1.08 ± 0.13.
G44F showed an abundance fitness of -0.126 ± 0.059.
G44I gave an abundance fitness of -0.567 ± 0.077.
For G44P, the abundance fitness was -0.311 ± 0.051.
For P58W, the abundance fitness was -0.016 ± 0.047.
Variant P58R has an abundance fitness of -0.029 ± 0.044.
With R3S the abundance fitness was -0.039 ± 0.031.
In the case of R3D, the abundance fitness is reported as -0.023 ± 0.069.
V20W gave an abundance fitness of 0.056 ± 0.064.
With V20L the abundance fitness was 0 ± 0.029.
Work on V20N yielded an abundance fitness of -0.028 ± 0.094.
For V20E, the abundance fitness was -0.002 ± 0.043.
Variant G57L has an abundance fitness of -0.158 ± 0.034.
Variant G57W has an abundance fitness of -0.256 ± 0.049.
With G57K the abundance fitness was -0.081 ± 0.054.
In the case of Q59E, the abundance fitness is reported as -0.103 ± 0.041.
Work on T40L yielded an abundance fitness of -0.087 ± 0.026.
With T40W the abundance fitness was -0.076 ± 0.051.
Work on E21H yielded an abundance fitness of 0.027 ± 0.052.
With E21V the abundance fitness was 0.013 ± 0.035.
For D25W, the abundance fitness was -0.26 ± 0.036.
Work on D25G yielded an abundance fitness of -0.257 ± 0.047.
In the case of D25H, the abundance fitness is reported as -0.102 ± 0.064.
For D25M, the abundance fitness was -0.153 ± 0.043.
F27W showed an abundance fitness of -0.102 ± 0.035.
F27C gave an abundance fitness of -0.243 ± 0.047.
F27G gave an abundance fitness of -0.229 ± 0.031.
I51N showed an abundance fitness of -0.071 ± 0.074.
Variant I51Y has an abundance fitness of 0.037 ± 0.089.
Q45C gave an abundance fitness of -0.031 ± 0.07.
Variant Q45I has an abundance fitness of -0.09 ± 0.075.
Q45L gave an abundance fitness of -0.021 ± 0.03.
G35C gave an abundance fitness of 0.02 ± 0.069.

Reference: the Human Domainome abundance scans (Beltran et al. 2025)
